US20220016183A1, “EXOSOME AND VARIOUS USES THEREOF” (PROSTEMICS CO., LTD., priority 2018, published 2022)

Experiments:
keratinocytes (HaCaT) = experiment: Keratinocyte (HaCaT) proliferation; assay type: cell-based, human; conditions: 500 ng/ml, 48 hours, DMEM 1% FBS
Experimental: (§1) After 48 hours, a change in cell viability was measured, and results thereof are shown in Tables 8 and 9 below and FIGS. 9 and 10.

human fibroblasts (HDF) = experiment: Skin fibroblast (HDF) proliferation; assay type: cell-based; conditions: 500 ng/ml, 48 hours, DMEM 1% FBS
Experimental: as §1

[1] = tested on: adipose-derived stem cells (ASC); experiment: Adipose-derived stem cell (ASC) proliferation, CCK-8; assay type: cell-based; conditions: positive control of Table 10 (FBS, 10 wt. % in medium), 24 hours
Experimental: Adipocytes derived stem cells (ADCs) were cultured in DMEM medium (Invitrogen) containing 10% fetal calf serum and 1% penicillin/streptomycin at 37° C. and 5% CO2 conditions, and the medium was changed every 3 days. After culturing for 24 hours, the cells were treated under the conditions shown in Table 10 below, and further cultured for 24 hours. After removing the treated material from each cell and dispensing the CCK-8 solution thereto, the cells were incubated at 37° C. in a CO2 incubator for 2 hours, and absorbance was measured at 450 nm.

B1: E1: EGF, positive control at 500 ng/ml (protein, UniProt P01133 23-1207, looked up)
Pro-epidermal growth factor: PQHWSCPEGTLAGNGNSTCVGPAPFLIFSHGNSIFRIDTEGTNYEQLVVDAGVSVIMDFHYNEKRIYWVDLERQLLQRVFLNGSRQERVCNIEKNVSGMAINWINEEVIWSNQQEGIITVTDMKGNNSHILLSALKYPANVAVDPVERFIFWSSEVAGSLYRADLDGVGVKALLETSEKITAVSLDVLDKRLFWIQYNREGSNSLICSCDYDGGSVHISKHPTQHNLFAMSLFGDRIFYSTWKMKTIWIANKHTGKDMVRINLHSSFVPLGELKVVHPLAQPKAEDDTWEPEQKLCKLRKGNCSSTVCGQDLQSHLCMCAEGYALSRDRKYCEDVNECAFWNHGCTLGCKNTPGSYYCTCPVGFVLLPDGKRCHQLVSCPRNVSECSHDCVLTSEGPLCFCPEGSVLERDGKTCSGCSSPDNGGCSQLCVPLSPVSWECDCFPGYDLQLDEKSCAASGPQPFLLFANSQDIRHMHFDGTDYGTLLSQQMGMVYALDHDPVENKIYFAHTALKWIERANMDGSQRERLIEEGVDVPEGLAVDWIGRRFYWTDRGKSLIGRSDLNGKRSKIITKENISQPRGIAVHPMAKRLFWTDTGINPRIESSSLQGLGRLVIASSDLIWPSGITIDFLTDKLYWCDAKQSVIEMANLDGSKRRRLTQNDVGHPFAVAVFEDYVWFSDWAMPSVMRVNKRTGKDRVRLQGSMLKPSSLVVVHPLAKPGADPCLYQNGGCEHICKKRLGTAWCSCREGFMKASDGKTCLALDGHQLLAGGEVDLKNQVTPLDILSKTRVSEDNITESQHMLVAEIMVSDQDDCAPVGCSMYARCISEGEDATCQCLKGFAGDGKLCSDIDECEMGVPVCPPASSKCINTEGGYVCRCSEGYQGDGIHCLDIDECQLGEHSCGENASCTNTEGGYTCMCAGRLSEPGLICPDSTPPPHLREDDHHYSVRNSDSECPLSHDGYCLHDGVCMYIEALDKYACNCVVGYIGERCQYRDLKWWELRHAGHGQQQKVIVVAVCVVVLVMLLLLSLWGAHYYRTQKLLSKNPKNPYEESSRDVRSRRPADTEDGMSSCPQPWFVVIKEHQDLKNGGQPVAGEDGQAADGSMQPTSWRQEPQLCGMGTEQGCWIPVSSDKGSCPQVMERSFHMPSYGTQTLEGGVEKPHSLLSANPLWQQRALDPPHQMELTQ
modifications: Pro-epidermal growth factor
notes: EGF, positive control at 500 ng/ml
For B1, the “HaCaT proliferation rate (%)” value (keratinocytes (HaCaT)) was 160.38%, the “HDF proliferation rate (%)” value (human fibroblasts (HDF)) was 143.04% and the “ASC proliferation rate (%)” value [1] was 186.10%.
